Experimental data reported in patent publication US20010016194A1 (published 2001).

Tests used:
[1] = molecular target: T1, Raf-1 proteins present in human T-cell lysates (human, UniProt P04049 1-648); experiment: anti-FLAG affinity column pull-down from 35S-labelled human T-cell lysate, anti-SP-63 immunoblot
T1 construct: Endogenous protein within a cell lysate, so other lysate proteins were present; also called T-cell derived Raf-1 proteins; cellular Raf-1 serine/threonine kinase

[2] = molecular target: T1, Raf-1 proteins present in human T-cell …; experiment: anti-FLAG bead pull-down from T-cell lysate, anti-Raf-1 immunoblot
(His)6-Raf-1 protein = molecular target: T2, (His)6-Raf-1 protein (UniProt P04049 1-648, limits assumed); experiment: totally cell-free pull-down on anti-FLAG beads, anti-Raf-1 immunoblot
T2 construct: Made in M15 bacteria and purified on Ni-NTA, or used as bacterial lysate; also called bacterially produced (His)6-Raf-1
Excerpt: Eluted proteins were separated on SDS-PAGE, transferred onto Immobilon membrane and blotted with anti-Raf-1 antibody.

binding result [1] | binding result [2] | binding result ((His)6-Raf-1 protein) | Binder
binds |  |  | FLAG-HMK-IL-2Rβ chain cytoplasmic domain wild type fusion protein (receptor, not shown: small tags and cut ends, Made in BL-21 pLysS bacteria, about 33 kDa; also called FLAG-HMK-IL-2Rβ chain wild type (WT); FLAG-HMK-IL-2Rβ-WT) NCRNTGPWLKKVLKCNTPDPSKFFSQLSSEHGGDVQKWLSSPFPSSSFSPGGLAPEISPLEVLERDKVTQLLLQQDKVPEPASLSSNHSLTSCFTNQGYFFFHLPDALEIEACQVYFTYDPYSEEDPDEGVAGAPTGSSPQPLQPLSGEDDAYCTFPSRDDLLLFSPSLLGGPSPPSTAPGGSGAGEERMPPSLQERVPRDWDPQPLGPPTPGVPDLVDFQPPPELVLREAGEEVPDAGPREGVSFPWSRPPGQGEFRALNARLPLNTDAYLSLQELQGQDPTHLV
 | no binding | no binding | FLAG-HMK-IL-2Rβ chain mutant lacking both acidic domain and proline rich C-terminal (A-CT-) (receptor, How it was constructed is not described; also called FLAG-HMK-IL-2Rβ S+; not shown: 17 amino acid FLAG-HMK tag) NCRNTGPWLKKVLKCNTPDPSKFFSQLSSEHGGDVQKWLSSPFPSSSFSPGGLAPEISPLEVLERDKVTQLLL
 | no binding |  | FLAG-HMK-IL-2Rβ chain containing only the proline rich C-terminal (CT+) (receptor, How it was constructed is not described; also called FLAG-HMK-IL-2Rβ chain CT+ proteins; not shown: 17 amino acid FLAG-HMK tag) QPLSGEDDAYCTFPSRDDLLLFSPSLLGGPSPPSTAPGGSGAGEERMPPSLQERVPRDWDPQPLGPPTPGVPDLVDFQPPPELVLREAGEEVPDAGPREGVSFPWSRPPGQGEFRALNARLPLNTDAYLSLQELQGQDPTHLV
